# In EP4541815A1 (Huahui Health Ltd., dated 2023):
# Substitutions are numbered along the chain they refer to.
# B1: afuco-A14 GA LS (antibody, human IgG1, lambda)
# heavy: QVQLQQSGPGLVKPSQTLSLTCAISGDSVSSNSAAWNWIRQSPSRGLEWLGRTYYRSKWYNDYAVSVKSRITINPDTSKNQFSLQLNSVTPEDTAVYYCARGTRWGMDVWGQGTLVTVSSASTKGPSVFPLAPSSKSTSGGTAALGCLVKDYFPEPVTVSWNSGALTSGVHTFPAVLQSSGLYSLSSVVTVPSSSLGTQTYICNVNHKPSNTKVDKKVEPKSCDKTHTCPPCPAPELLAGPSVFLFPPKPKDTLMISRTPEVTCVVVDVSHEDPEVKFNWYVDGVEVHNAKTKPREEQYNSTYRVVSVLTVLHQDWLNGKEYKCKVSNKALPAPIEKTISKAKGQPREPQVYTLPPSRDELTKNQVSLTCLVKGFYPSDIAVEWESNGQPENNYKTTPPVLDSDGSFFLYSKLTVDKSRWQQGNVFSCSVLHEALHSHYTQKSLSLSPGK
# light: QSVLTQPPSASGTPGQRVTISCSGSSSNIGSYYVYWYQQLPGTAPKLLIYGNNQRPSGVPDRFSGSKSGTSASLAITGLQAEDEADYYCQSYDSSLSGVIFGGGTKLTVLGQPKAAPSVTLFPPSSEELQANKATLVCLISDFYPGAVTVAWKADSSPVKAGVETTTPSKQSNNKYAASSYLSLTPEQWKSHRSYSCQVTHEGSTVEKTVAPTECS
# What was measured:
# [1] = molecular target: T1, hFcγRIIa (R131) (recombinant, C-terminal 6xHis tag) (human, UniProt P12318 34-217); assay: Biacore SPR, ratio against A14 WT
# T1 construct: also called hFcyR2a R131
# T1 sequence: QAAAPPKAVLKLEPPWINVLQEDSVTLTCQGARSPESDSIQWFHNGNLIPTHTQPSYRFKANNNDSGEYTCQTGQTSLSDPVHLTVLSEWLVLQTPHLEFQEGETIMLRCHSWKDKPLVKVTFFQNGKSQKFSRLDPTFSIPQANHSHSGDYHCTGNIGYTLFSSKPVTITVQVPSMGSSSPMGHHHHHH
# [2] = molecular target: T2, hFcγRIIIa (V158) (recombinant, C-terminal 6xHis tag) (human, UniProt P08637 17-208); assay: Biacore SPR, ratio against A14 WT
# T2 construct: also called hFcyR3a V158
# T2 sequence (P08637 other isoform, or with tags, fused parts or gaps): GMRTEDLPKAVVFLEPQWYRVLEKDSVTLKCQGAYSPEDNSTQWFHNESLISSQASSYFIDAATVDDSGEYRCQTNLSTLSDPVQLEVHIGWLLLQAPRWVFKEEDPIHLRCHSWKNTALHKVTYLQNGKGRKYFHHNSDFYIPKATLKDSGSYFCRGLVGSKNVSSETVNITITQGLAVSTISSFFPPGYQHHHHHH
# [3] = molecular target: T3, hFcγRIIa (H131) (recombinant, C-terminal 6xHis tag) (human, UniProt P12318 34-217); assay: Biacore SPR, ratio against A14 WT
# T3 construct: also called hFcyR2a H131
# T3 sequence: T1 sequence with R134H
# [4] = molecular target: T4, hFcγRIIIa (F158) (recombinant, C-terminal 6xHis tag) (human, UniProt P08637 17-208); assay: Biacore SPR, ratio against A14 WT
# T4 construct: also called hFcyR3a F158
# T4 sequence (P08637 other isoform, or with tags, fused parts or gaps): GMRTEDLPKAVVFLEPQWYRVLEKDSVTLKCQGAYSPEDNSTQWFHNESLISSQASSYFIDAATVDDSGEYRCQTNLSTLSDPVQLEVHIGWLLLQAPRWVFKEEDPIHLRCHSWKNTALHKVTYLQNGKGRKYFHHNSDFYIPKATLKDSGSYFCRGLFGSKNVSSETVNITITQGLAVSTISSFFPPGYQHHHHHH
# [5] = molecular target: T5, hFcγRIa (recombinant, C-terminal 6xHis tag) (human, UniProt P12314 16-292); assay: Biacore SPR, ratio against A14 WT
# T5 construct: also called hFcγR1a
# T5 sequence (P12314 other isoform, or with tags, fused parts or gaps): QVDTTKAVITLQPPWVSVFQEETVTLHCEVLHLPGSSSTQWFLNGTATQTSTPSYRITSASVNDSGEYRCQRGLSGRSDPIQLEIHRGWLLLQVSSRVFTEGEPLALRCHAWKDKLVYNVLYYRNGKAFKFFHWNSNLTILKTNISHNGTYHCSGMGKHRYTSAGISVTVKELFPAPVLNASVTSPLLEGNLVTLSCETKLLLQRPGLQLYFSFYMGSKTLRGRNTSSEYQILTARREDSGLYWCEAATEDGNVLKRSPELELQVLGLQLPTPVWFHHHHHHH
# [6] = molecular target: T6, hFcγRIIb (recombinant, C-terminal 6xHis tag) (human, UniProt P31994 43-217); assay: Biacore SPR, ratio against A14 WT
# T6 construct: also called hFcyR2b
# T6 sequence: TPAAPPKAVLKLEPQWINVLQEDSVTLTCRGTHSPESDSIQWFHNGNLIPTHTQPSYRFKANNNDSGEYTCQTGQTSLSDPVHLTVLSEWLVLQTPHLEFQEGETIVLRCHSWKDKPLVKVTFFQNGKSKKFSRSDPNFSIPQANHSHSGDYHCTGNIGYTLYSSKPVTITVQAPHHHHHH
# [7] = molecular target: FcγRIIIa F158 on Jurkat/NFAT-luc2p/FcγRIIIa F158 cells (UniProt P08637 17-254, limits assumed); assay: cell-based or functional assay
# [8] = molecular target: T7, FcγRIIa R131 on Jurkat/NFAT-luc2p/FcγRIIa R131 cells (UniProt P12318 34-317, limits assumed); assay: cell-based or functional assay
# T7 sequence (looked up): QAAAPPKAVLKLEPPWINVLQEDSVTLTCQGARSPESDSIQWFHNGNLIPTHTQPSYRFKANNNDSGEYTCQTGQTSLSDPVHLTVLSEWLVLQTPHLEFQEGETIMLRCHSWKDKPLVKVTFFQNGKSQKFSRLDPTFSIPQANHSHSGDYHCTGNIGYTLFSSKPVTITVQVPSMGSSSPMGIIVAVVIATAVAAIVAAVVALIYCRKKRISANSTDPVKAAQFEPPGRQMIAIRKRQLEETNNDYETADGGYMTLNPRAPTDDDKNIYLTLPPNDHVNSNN
# [9] = molecular target: Pre-S1 domain of hepatitis B virus (L protein) on recombinant HBV D genotype virus (hepatitis B virus, D genotype); assay: cell-based or functional assay
# [10] = molecular target: T1, hFcγRIIa (R131) (recombinant, …); assay: Biacore SPR, antibody captured on Protein G CM5 chip, hFcγR as mobile phase, pH 7.0, 1:1 Langmuir fit
# [11] = molecular target: T2, hFcγRIIIa (V158) (recombinant, …); assay: as above
# [12] = molecular target: T3, hFcγRIIa (H131) (recombinant, …); assay: as above
# [13] = molecular target: T4, hFcγRIIIa (F158) (recombinant, …); assay: as above
# [14] = molecular target: T5, hFcγRIa (recombinant, C-terminal 6xHis …); assay: as above
# [15] = molecular target: T6, hFcγRIIb (recombinant, C-terminal 6xHis …); assay: as above
binder,measurement,setting,value
B1,Fold (KD of A14 WT over KD of afuco-A14 GA LS),[1],3.83 fold
same,Fold (KD of A14 WT over KD of afuco-A14 GA LS),[2],7.89 fold
same,Fold (KD of A14 WT over KD of afuco-A14 GA LS),[3],4.63 fold
same,Fold (KD of A14 WT over KD of afuco-A14 GA LS),[4],11 fold
same,Fold (KD of A14 WT over KD of afuco-A14 GA LS),[5],0.41 fold
same,Fold (KD of A14 WT over KD of afuco-A14 GA LS),[6],0.76 fold
same,"ADCC activity, fold enhancement compared to A14",[7],18.6 fold
same,"ADCP activity, fold enhancement compared to A14",[8],4.7 fold
same,IC50 of inhibition of HBV infection of HepG2-hNTCP cells (HBeAg secretion),[9],~0.011 µg/mL
same,Kd,[10],204 nM
same,Kd,[11],123 nM
same,Kd,[12],169 nM
same,Kd,[13],588 nM
same,Kd,[14],173 nM
same,Kd,[15],7470 nM
